Source: paper PMC6454211 (Biochemistry, 2018)

Target: Calmodulin (human full-length CaM, Ca2+-loaded) (human, UniProt P0DP23 1-149)
Assay: cross-linking

binding result: binds
B1: p85α cSH2 domain V663K/V667N/L687F/L691V/L696N (residues 614-724) (domain or fragment)
chain: EDLPHHDEKTWNVGSSNRNKAENLLRGKRDGTFLVRESSKQGCYACSVVKDGENKHCVINKTATGYGFAEPYNFYSSVKELVNHYQHTSLVQHNDSLNVTLAYPVYAQQRR
